Data as given in patent US12286661B2, “Methods for making high intensity sweeteners” (Firmenich Incorporated, priority 2018, dated 2025).

Tested on: mogrol
Test: Mogroside IA and/or IE production from mogrol by glycosyltransferases expressed in S. cerevisiae, LCMS
Format: cell-based
Conditions: 10 μM mogrol, 2-4 days at 30° C.; identified by LCMS
Source text: DNA was obtained through gene synthesis either through Genescript, IDT, or Genewiz. For some of the cucurbitadienol synthases, cDNA or genomic DNA was obtained through 10-60 day old seedlings followed by PCR amplification using specific and degenerate primers. DNA was cloned through standard molecular biology techniques or through yeast gap repair cloning (Joska et al., 2014) into one of the following overexpression vectors: pESC-Ura, pESC-His, or pESC-LEU. Gene expression was regulated by one of the following promoters; Gall, Gal10, Tef1, or GDS. Yeast transformation was performed using Zymo Yeast Transformation Kit II. Yeast strains were grown in standard media (YPD or SC) containing the appropriate selection with 2% glucose or 2% galactose for induction of heterologous genes. Yeast strains were grown in shake flask or 96 well plates at 30° ° C., 140-250 rpm. When indicated, lanosterol synthase inhibitor, Ro 48-8071 (Cayman Chemicals) was added (50 ug/ml). Yeast samples producing mogrol precursors, mogrol and mogrosides were processed through one of the following: • Cucurbitadienol and 11-OH Cucurbitadienol: Samples cell pellets were lysed (Yeast Buster) followed by ethyl acetate extraction, drying, and resuspension in methanol. • ·Mogrol and Mogrosides: Samples cell pellets were lysed in 50% ETOH, incubated at 80° C. for 30 min, filtered, dried and resuspended in MeOH for LCMS screening.
For analyzing Mogroside IIIE & Compound 1, the LCMS method included the use of Fluoro-phenyl 2.1×100 mm column, gradient 15 to 30% B for 6 minutes, at flow rate of 0.55 ml/min. For analyzing yeast production of mogroside I during enzyme screening, the LCMS method used a Phenomenex Kinetex Polar C18, 4.6×100 mm, 2.6 μm column, and a gradient of 25% to 55% B over 3 minutes, and 100% B at 3.5 minutes with a flow rate of 1.5 ml/min. Detection by ESI source negative mode single ion monitoring of 683.4 for mogroside I and 799.4 for mogroside II.
Various glycosyltransferase proteins were expressed in S. cerevisiae grown in the presence of 10 μM mogrol for 2-4 days at 30° C., 140-250 rpm in either shake flask or 96 well plates. Glycosyltransferases leading to production of Mogroside IA (glycosylation of C24-OH position) and/or Mogroside IE (glycosylation of C3-OH position) are provided in Table 6. DNA and protein sequences for the enzymes are provided in SEQ IDs 1050-1071 (see Table 1).

Molecule | Mogroside IA | Mogroside IE
SEQ ID NO. 1052/1053: glycosyltransferase (DNA/protein SEQ ID NO) producing mogroside I from mogrol (protein, listed as Siraitia grosvenorii) MEKGDTHILVFPFPSQGHINPLLQLSKRLIAKGIKVSLVTTLHVSNHLQLQGAYSNSVKIEVISDGSEDRLETDTMRQTLDRFRQKMTKNLEDFLQKAMVSSNPPKFILYDSTMPWVLEVAKEFGLDRAPFYTQSCALNSINYHVLHGQLKLPPETPTISLPSMPLLRPSDLPAYDFDPASTDTIIDLLTSQYSNIQDANLLFCNTFDKLEGEIIQWMETLGRPVKTVGPTVPSAYLDKRVENDKHYGLSLFKPNEDVCLKWLDSKPSGSVLYVSYGSLVEMGEEQLKELALGIKETGKFFLWVVRDTEAEKLPPNFVESVAEKGLVVSWCSQLEVLAHPSVGCFFTHCGWNSTLEALCLGVPVVAFPQWADQVTNAKFLEDVWKVGKRVKRNEQRLASKEEVRSCIWEVMEGERASEFKSNSMEWKKWAKEAVDEGGSSDKNIEEFVAMLKQT | 1605 | 22917
SEQ ID NO. 1054/1055: glycosyltransferase (DNA/protein SEQ ID NO) producing mogroside I from mogrol (protein, listed as Barbarea vulgaris) MVSEITHKSYPLHFVLFPFMAQGHMIPMVDIARLLAQRGVKITIVTTPHNAARFENVLSRAIESGLPISIVQVKLPSQEAGLPEGNETFDSLVSMELLVPFFKAVNMLEEPVQKLFEEMSPQPSCIISDFCLPYTSKIAKKFNIPKILFHGMCCFCLLCMHVLRKNREILENLKSDKEHFVVPYFPDRVEFTRPQVPMATYVPGEWHEIKEDIVEADKTSYGVIVNTYQELEPAYANDYKEARSGKAWTIGPVSLCNKVGADKAERGNKADIDQDECLKWLDSKEEGSVLYVCLGSICSLPLSQLKELGLGLEESQRPFIWVVRGWEKNKELLEWFSESGFEERVKDRGLLIKGWSPQMLILAHHSVGGFLTHCGWNSTLEGITSGIPLLTWPLFGDQFCNQKLVVQVLKVGVSAGVEEVTNWGEEEKIGVLVDKEGVKKAVEELMGESDDAKERRKRVKELGQLAQKAVEEGGSSHSNITSLLEDIMQLAQSNN | 659331 | 17857
SEQ ID NO. 1056/1057: glycosyltransferase (DNA/protein SEQ ID NO) producing mogroside I from mogrol (protein, listed as Barbarea vulgaris) MVSEITHKSYPLHFVLFPFMAQGHMIPMVDIARLLAQRGVKITIVTTPHNAARFENVLSRAIESGLPISIVQVKLPSQEAGLPEGNETFDSLVSTKLLVPFFKAVNMLEEPVQKLFEEMSPQPSCIISDFCLPYTSKIAKKFNIPKILFHGMCCFCLLCMHVLRKNREILENLKSDKEHFVVPYFPDRVEFTRPQVPLATYVPGEWHEIKEDMVEADKTSYGVIVNTYQELEPAYANGYKEARSGKAWTIGPVSLCNKVGADKAERGNKADIDQDECLKWLDSKEEGSVLYVCLGSICSLPLSQLKELGLGLEESQRPFIWVVRGWEKNKELLEWFSESGFEERVKDRGLLIKGWSPQMLILAHHSVGGFLTHCGWNSTLEGITSGVPLLTWPLFGDQFCNQKLVVQVLKVGVSAGVEEVTNWGEEEKIGVLVDKEGVKKAVEELMGESDDAKEIRKRVKELGQLAHKAVEEGGSSHSNITSLLEDIMQLAQPNN | 200270 | 4690
